Laboratory results from US20180185450A1 (Sanofi, published 2018).
Where a chain is given by its changes, count along the chain named. Numbered stars: 1 amine (or outer) side, 2 acyl side, 3 side chain; on linkers, the order of the positions; unused ones are H or OH. Square brackets hold non-standard residues; d marks the D form. Side chains are listed from the residue outwards. Ends that are not written are not given here. γGlu = O=C(O)[C@H](CCC(=O)[*:2])N[*:1]; X70 = not defined here; x53 = not defined here; x70 = not defined here; Aib = CC(C)(N)C(=O)O

B1: SEQ ID NO: 217 (peptide)
peptide: H[Aib]HGTFTSDLSKQK([γGlu-X70])EEEAARLFIEWLKAGGPSSGAPPPS-NH2
modifications: reading uncertain
B2: SEQ ID NO: 227 (peptide)
peptide: H[Aib]HGTFTSDLSKQK([γGlu-γGlu-x53])DEEAARLFIEWLKAGGPSSGAPPPS-NH2
modifications: reading uncertain
B3: SEQ ID NO: 219 (peptide)
peptide: HXHGTFTSDLSKQKEEEAARLFIEWLKAGGPSSGAPPPS
modifications: dSer at 2; K(γE-X70) at 14; C-terminal NH2
B4: SEQ ID NO: 18 (peptide)
peptide: B3 peptide with H3Q, R20X, L21D
modifications: dSer at 2; K(γE-x53) at 14; Aib at 20; C-terminal NH2
B5: SEQ ID NO: 27 (peptide)
peptide: B3 peptide with H3Q, E16S, E17K, R20Q
modifications: dSer at 2; K(γE-x70) at 14; C-terminal NH2
B6: SEQ ID NO: 48 (peptide)
peptide: B3 peptide with H3Q, E16S, E17R, R20Q
modifications: dSer at 2; K(γE-x53) at 14; C-terminal NH2
B7: SEQ ID NO: 46 (peptide)
peptide: B3 peptide with H3Q, E16S, E17R, R20X
modifications: dSer at 2; K(γE-x53) at 14; Aib at 20; C-terminal NH2
B8: SEQ ID NO: 19 (peptide)
peptide: B3 peptide with H3Q, R20K
modifications: dSer at 2; K(γE-x53) at 14; C-terminal NH2
B9: SEQ ID NO: 220 (peptide)
peptide: B3 peptide with E15D
modifications: dSer at 2; K(γE-X70) at 14; C-terminal NH2
B10: SEQ ID NO: 221 (peptide)
peptide: B3 peptide with H3Q, E15D
modifications: dSer at 2; K(γE-x53) at 14; C-terminal NH2
B11: SEQ ID NO: 45 (peptide)
peptide: B3 peptide with H3Q, E16S, E17R, R20Q
modifications: dSer at 2; K(γE-x70) at 14; C-terminal NH2
B12: SEQ ID NO: 222 (peptide)
peptide: B3 peptide with H3Q, E15D
modifications: dSer at 2; K(γE-X70) at 14; C-terminal NH2
B13: SEQ ID NO: 23 (peptide)
peptide: B3 peptide with H3Q, E17K, A18K, R20K
modifications: dSer at 2; K(γE-x53) at 14; C-terminal NH2
B14: SEQ ID NO: 29 (peptide)
peptide: B3 peptide with H3Q, E16S, E17K, R20Q
modifications: dSer at 2; K(γE-x53) at 14; C-terminal NH2
B15: SEQ ID NO: 21 (peptide)
peptide: B3 peptide with H3Q, E16S, R20Q
modifications: dSer at 2; K(γE-x53) at 14; C-terminal NH2
B16: SEQ ID NO: 20 (peptide)
peptide: B3 peptide with H3Q, E16S, R20Q, L21D
modifications: dSer at 2; K(γE-x53) at 14; C-terminal NH2
B17: SEQ ID NO: 43 (peptide)
peptide: H[Aib]QGTFTSDLSKQK(x53)ESQAAQDFIEWLKAGGPSSGAPPPS-NH2
modifications: reading uncertain
B18: SEQ ID NO: 214 (peptide)
peptide: H[Aib]QGTFTSDLSKQK([γGlu-X70])DEEAARLFIEWLKAGGPSSGAPPPS-NH2
modifications: reading uncertain
B19: SEQ ID NO: 31 (peptide)
peptide: H[Aib]QGTFTSDLSKQK([γGlu-x53])DSKAAQDFIEWLKAGGPSSGAPPPS-NH2
modifications: reading uncertain
B20: SEQ ID NO: 41 (peptide)
peptide: H[Aib]QGTFTSDLSKQK([γGlu-x70])ESQAAQDFIEWLKAGGPSSGAPPPS-NH2
modifications: reading uncertain
B21: SEQ ID NO: 192 (peptide)
peptide: HXQGTFTSDLSKQXDSKAAQDFIEWLKAGGPSSGAPPPS
modifications: dSer at 2; Nle at 14; C-terminal NH2

target: human GLP-1 receptor (human, UniProt P43220 24-463); experiment: cell-based or functional assay

Row | Binder | EC50 hGLP-1R (cAMP)
1 | B1 | 4.3 pM
2 | B2 | 1.4 pM
3 | B3 | 2.1 pM
4 | B4 | 2.6 pM
5 | B5 | 7.7 pM
6 | B6 | 5.9 pM
7 | B7 | 3.2 pM
8 | B8 | 1.9 pM
9 | B9 | 2 pM
10 | B10 | 1.5 pM
11 | B11 | 7.5 pM
12 | B12 | 1.8 pM
13 | B13 | 5.6 pM
14 | B14 | 5.9 pM
15 | B15 | 3.8 pM
16 | B16 | 3.8 pM
17 | B17 | 4.1 pM
18 | B18 | 4.2 pM
19 | B19 | 1.7 pM
20 | B20 | 3.3 pM

target: T1, human glucagon receptor (human, UniProt P47871 26-477); experiment: cell-based or functional assay
T1 sequence (P47871 26-477): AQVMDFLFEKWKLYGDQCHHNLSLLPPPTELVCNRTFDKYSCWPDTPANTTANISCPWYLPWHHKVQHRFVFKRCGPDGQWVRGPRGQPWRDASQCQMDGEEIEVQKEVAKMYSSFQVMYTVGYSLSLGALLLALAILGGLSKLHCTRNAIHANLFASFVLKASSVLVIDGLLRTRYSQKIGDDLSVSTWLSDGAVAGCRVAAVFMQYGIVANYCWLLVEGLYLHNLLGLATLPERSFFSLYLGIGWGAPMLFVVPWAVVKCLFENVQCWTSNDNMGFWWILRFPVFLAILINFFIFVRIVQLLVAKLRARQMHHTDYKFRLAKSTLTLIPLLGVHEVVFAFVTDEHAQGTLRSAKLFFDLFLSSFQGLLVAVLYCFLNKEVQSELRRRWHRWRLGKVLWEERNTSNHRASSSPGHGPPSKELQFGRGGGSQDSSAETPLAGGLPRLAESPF

Row | Binder | EC50 hGlucagon-R (cAMP)
21 | B1 | 2.1 pM
22 | B2 | 1.1 pM
23 | B3 | 3.7 pM
24 | B4 | 152 pM
25 | B5 | 25.1 pM
26 | B6 | 53.6 pM
27 | B7 | 25.1 pM
28 | B8 | 104 pM
29 | B9 | 2.3 pM
30 | B10 | 9.2 pM
31 | B11 | 19.9 pM
32 | B12 | 2.9 pM
33 | B13 | 126 pM
34 | B14 | 87.9 pM
35 | B15 | 144 pM
36 | B16 | 104 pM
37 | B17 | 443 pM
38 | B18 | 16 pM
39 | B19 | 9.3 pM
40 | B20 | 20.7 pM

target: T1, human glucagon receptor; experiment: cell-based or functional assay; remark: another data set of the same source

Row | Binder | EC50 hGlucagon-R (cAMP)
41 | B21 | 478 pM
